In assay [1] the target is T1, human ROR1 (hROR1) (human, UniProt Q01973 30-937).
T1 construct: On HCT116-hROR1 transfectants, Mino cells or Ntera-2 cells, as the assay of each row says; also called receptor tyrosine kinase like orphan receptor 1
Briefly: flow cytometry, HCT116-hROR1 cells; NSB = non-saturating binding. In general terms: A flow cytometer gives signals particle by particle.

Assay [2] concerns the target T1, human ROR1 (hROR1). Briefly: cell-based or functional assay.
Assay [3] deals with receptor tyrosine kinase orphan receptor 1 (ROR1) on Ntera-2 cells (human, UniProt Q01973 30-937). Briefly: cell-based or functional assay.

Changes are numbered by the printed parent chain.

The text below walks through data of patent US20240058465A1 (SUTRO BIOPHARMA, published 2024).

B1: SRP2193-A01 (antibody, IgG1, V domains shown)
VH: EVQLVESGGGLVQPGGSLRLSCAASGFNINDHYIHWVRQAPGKGLEWVGAIDPTSGSTVFADSVKGRFTISADTSKNTAYLQMNSLRAEDTAVYYCARSRWFRVLWSYVFDYWGQGTLVTVSS
VL: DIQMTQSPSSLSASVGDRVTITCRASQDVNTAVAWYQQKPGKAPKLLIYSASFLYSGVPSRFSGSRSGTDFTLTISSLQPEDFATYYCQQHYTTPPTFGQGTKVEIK
notes: His/FLAG-tagged IgG1, cell-free
In the case of B1, in the assay with human ROR1 (hROR1) [1], the binding result was “binds”.

B2: SRP2193-A09 (antibody, IgG1, V domains shown)
VH: B1 VH with N30G, D31K, Y33H, A50V, T54K, S55G, F60Y, F102S
VL: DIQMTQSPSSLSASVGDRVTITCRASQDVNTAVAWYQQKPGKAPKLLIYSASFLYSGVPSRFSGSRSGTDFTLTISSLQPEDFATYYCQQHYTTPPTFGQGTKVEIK
notes: His/FLAG-tagged IgG1, cell-free; also called Antibody 94
Turning to B2, the binding result in the assay with human ROR1 (hROR1) [1] was “binds”.

B3: SRP2193-A03 (antibody, IgG1, V domains shown)
VH: B1 VH with N30A, D31N, H32Y, Y33H, T54K, F60H, F102S, S107T
VL: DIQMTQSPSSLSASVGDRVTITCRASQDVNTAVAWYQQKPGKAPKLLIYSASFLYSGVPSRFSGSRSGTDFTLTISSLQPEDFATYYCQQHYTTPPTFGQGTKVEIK
notes: as for B1
As for B3, the binding result with human ROR1 (hROR1) [1] is recorded as “binds”.

B4: SRP2193-A08 (antibody, IgG1, V domains shown)
VH: B1 VH with N30I, H32S, T54N, S55A, F60Y, K65R, L81I
VL: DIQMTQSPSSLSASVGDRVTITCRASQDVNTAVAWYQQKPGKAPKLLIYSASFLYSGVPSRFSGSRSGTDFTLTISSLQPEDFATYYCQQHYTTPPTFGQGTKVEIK
notes: His/FLAG-tagged IgG1, cell-free; also called Antibody 112
Turning to B4, the binding result in the assay with human ROR1 (hROR1) [1] is “binds”.

B5: SRP2193-A10 (antibody, IgG1, V domains shown)
VH: B1 VH with N30G, H32Y, T54K, S57Y, F60Y
VL: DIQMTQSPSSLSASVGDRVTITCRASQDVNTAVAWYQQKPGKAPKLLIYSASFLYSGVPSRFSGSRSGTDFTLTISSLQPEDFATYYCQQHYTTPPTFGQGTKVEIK
notes: His/FLAG-tagged IgG1, cell-free; also called Antibody 95
For B5, in the assay with human ROR1 (hROR1) [1], the binding result is “binds”.

B6: SRP2193-A05 (antibody, IgG1, V domains shown)
VH: B1 VH with N30K, D31G, H32Y, G49S, A50V, T54N, V59I, F110L
VL: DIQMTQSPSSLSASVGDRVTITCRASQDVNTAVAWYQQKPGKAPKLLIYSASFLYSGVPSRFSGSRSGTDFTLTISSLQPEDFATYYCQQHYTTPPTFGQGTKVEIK
notes: His/FLAG-tagged IgG1, cell-free; also called Antibody 116
As for B6, the binding result in the assay with human ROR1 (hROR1) [1] is reported as “binds”.

B7: SRP2193-A04 (antibody, IgG1, V domains shown)
VH: B1 VH with N30I, D31S, H32Y, T54N, V59L, F60L, F110Y
VL: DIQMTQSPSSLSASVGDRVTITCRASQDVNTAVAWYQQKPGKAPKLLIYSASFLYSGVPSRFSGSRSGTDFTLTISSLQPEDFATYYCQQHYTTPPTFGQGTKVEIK
notes: as for B1
As to B7, the binding result with human ROR1 (hROR1) [1] is “binds”.

B8: SRP2193-A06 (antibody, IgG1, V domains shown)
VH: B1 VH with D31A, H32Y, G49D, T54D, V59H, F60N, V109I
VL: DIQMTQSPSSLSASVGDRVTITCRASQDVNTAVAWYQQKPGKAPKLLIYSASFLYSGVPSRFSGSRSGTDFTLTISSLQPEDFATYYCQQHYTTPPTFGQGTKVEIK
notes: His/FLAG-tagged IgG1, cell-free; also called Antibody 85
In the case of B8, in the assay with human ROR1 (hROR1) [1], the binding result was “binds”.

B9: SRP2193-A07 (antibody, IgG1, V domains shown)
VH: B1 VH with D31A, H32S, Y33D, E46G, T54N, S55T, S57T, V59N, F60Y
VL: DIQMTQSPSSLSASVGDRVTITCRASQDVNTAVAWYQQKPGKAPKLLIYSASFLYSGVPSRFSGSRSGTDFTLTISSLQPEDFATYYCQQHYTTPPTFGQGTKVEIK
notes: His/FLAG-tagged IgG1, cell-free; also called Antibody 97
For B9, the binding result in the assay with human ROR1 (hROR1) [1] is “binds”.

B10: SRP2193-A02 (antibody, IgG1, V domains shown)
VH: B1 VH with N30H, D31A, H32S, T54K, V59Y, F60Y, F102L, V109I
VL: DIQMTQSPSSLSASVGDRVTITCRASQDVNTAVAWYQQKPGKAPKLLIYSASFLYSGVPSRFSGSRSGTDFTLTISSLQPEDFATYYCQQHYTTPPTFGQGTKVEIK
notes: His/FLAG-tagged IgG1, cell-free; also called Antibody 83
In the case of B10, the binding result in the assay with human ROR1 (hROR1) [1] is recorded as “binds”.

B11: SRP2193-A11 (antibody, IgG1, V domains shown)
VH: B1 VH with N30D, D31A, H32Y, T54K, F60Y, I70T
VL: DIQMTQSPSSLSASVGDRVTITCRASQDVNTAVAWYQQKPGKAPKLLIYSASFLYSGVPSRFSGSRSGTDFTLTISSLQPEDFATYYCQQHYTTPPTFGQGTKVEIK
notes: His/FLAG-tagged IgG1, cell-free; also called Antibody 110
Take B11: the binding result in the assay with human ROR1 (hROR1) [1] was “binds”.

B12: Conjugate 5 (2188-D04-F404-LP8) (antibody, human IgG1, kappa)
heavy: MEVQLVESGGGLVQPGGSLRLSCAASGFNISDYDIHWVRQAPGKGLEWVGGIDPADGSTDYADSVKGRFTISADTSKNTAYLQMNSLRAEDTAVYYCARDYGVYDYWGQGTLVTVSSASTKGPSVFPLAPSSKSTSGGTAALGCLVKDYFPEPVTVSWNSGALTSGVHTFPAVLQSSGLYSLSSVVTVPSSSLGTQTYICNVNHKPSNTKVDKKVEPKSCDKTHTCPPCPAPELLGGPSVFLFPPKPKDTLMISRTPEVTCVVVDVSHEDPEVKFNWYVDGVEVHNAKTKPREEQYNSTYRVVSVLTVLHQDWLNGKEYKCKVSNKALPAPIEKTISKAKGQPREPQVYTLPPSREEMTKNQVSLTCLVKGFYPSDIAVEWESNGQPENNYKTTPPVLDSDGSFLYSKLTVDKSRWQQGNVFSCSVMHEALHNHYTQKSLSLSPGK
light: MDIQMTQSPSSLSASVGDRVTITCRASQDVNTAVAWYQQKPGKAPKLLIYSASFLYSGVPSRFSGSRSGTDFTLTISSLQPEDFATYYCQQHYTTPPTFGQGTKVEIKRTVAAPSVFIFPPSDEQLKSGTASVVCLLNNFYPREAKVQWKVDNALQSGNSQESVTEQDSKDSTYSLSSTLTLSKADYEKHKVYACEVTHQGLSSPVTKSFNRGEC
modifications: pAMF at HC-F404 (the * of the entry), conjugated to LP8 (DBCO-GGG-EDA PNU)
On to B12, for which, in the assay with human ROR1 (hROR1) [2], the “cell killing on ROR1 positive NTERA-2 cells, EC50” value came out at 0.0101 nM and the “cell killing on ROR1 positive NTERA-2 cells, Span” value is 83%.

B13: Conjugate 43 (D04-F404-LP26) (antibody, human IgG1, kappa)
heavy: B12 heavy
light: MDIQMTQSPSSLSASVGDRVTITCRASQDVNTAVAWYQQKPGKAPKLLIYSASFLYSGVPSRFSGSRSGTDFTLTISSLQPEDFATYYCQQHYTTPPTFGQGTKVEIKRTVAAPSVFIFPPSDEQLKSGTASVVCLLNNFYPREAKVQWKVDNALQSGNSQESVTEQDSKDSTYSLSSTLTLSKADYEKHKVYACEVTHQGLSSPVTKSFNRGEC
modifications: pAMF at F404 (EU), linked to LP26
Take B13: in assay [3], the “cell killing EC50, NTERA-2 cells” value was more than 10 nM and the “cell killing Span, NTERA-2 cells” value was less than 10%.
